Measured values taken from publication PMC4889239.

Target: ataxia-telangiectasia mutated (ATM) kinase, full-length human (human) (UniProt Q13315)
Test: negative-stain single-particle electron microscopy
Settings: remark: other sources report otherwise

Q: “ataxia-telangiectasia mutated (ATM) kinase, full-length human, Q13315 1-3056” was tested. Which percent of the particles that are dimers (% of the particles) did it give?
A: 60
